Five molecules from article PMC6662822, “Rational drug-design approach supported with thermodynamic studies — a peptide leader for the efficient bi-substrate inhibitor of protein kinase CK2” (Scientific Reports, 2019) can be followed below.

As a reminder, the Kd is the equilibrium constant for the complex coming apart.

Where no end group is shown, it is not given here.

What all share (details): both partners purified
Test [1] concerns the target T1, catalytic subunit of human protein kinase CK2 (human, UniProt P68400 1-391, NT-647 dye (NanoTemper Protein Labeling Kit RED), in the MST experiments only).
T1 construct: catalytic subunit (alpha) of human protein kinase CK2; The His tag is named only for the pull-down (immobilised on cobalt resin); also called hCK2α; CK2α
The experiment in a line: other fluorescence titration; nanoDSF (Prometheus NT.48): 350 nm/330 nm fluorescence ratio at 25 °C (native protein) against peptide concentration; 2.5 μM hCK2α, peptide 300 nM-10 mM, 25 mM Tris-HCl pH 7, 0.5 M NaCl; single binding site model. On the technique in general: Differential scanning fluorimetry follows unfolding on heating by fluorescence.

Test [2] addresses T1, catalytic subunit of human protein …. In words: other fluorescence titration; nanoDSF as a3 (25 °C), hCK2α in the presence of TBBt (hCK2α/TBBt complex).
Test [3] shares this target. In words: other fluorescence titration; nanoDSF as a3, but data at 75 °C: unfolded form of hCK2α.
Test [4] shares this target. The experiment in a line: MST; as a6, labelled hCK2α in the presence of TBBt (hCK2α/TBBt complex).
Test [5] has the same target. In words: MST; hCK2α labelled with NT-647 dye, 50 nM; ligand 100 nM-10 mM; thermophoresis with temperature jump; global fit of three independent pseudo-titrations.

T1 sequence (P68400 whole entry): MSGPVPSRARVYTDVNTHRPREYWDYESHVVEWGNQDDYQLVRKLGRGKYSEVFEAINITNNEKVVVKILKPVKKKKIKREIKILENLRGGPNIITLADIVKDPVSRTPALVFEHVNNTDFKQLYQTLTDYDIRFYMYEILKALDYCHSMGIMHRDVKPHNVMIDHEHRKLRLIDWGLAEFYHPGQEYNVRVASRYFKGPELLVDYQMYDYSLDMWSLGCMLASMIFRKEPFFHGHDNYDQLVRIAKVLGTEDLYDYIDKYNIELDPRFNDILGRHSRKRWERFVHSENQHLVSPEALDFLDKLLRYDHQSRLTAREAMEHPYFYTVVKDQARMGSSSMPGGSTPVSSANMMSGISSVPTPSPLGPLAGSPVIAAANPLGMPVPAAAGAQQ

B1: EETEEE-NH2 (peptide)
peptide: EETEEE-NH2
notes: source: synthetic peptide (solid-phase synthesis, purified by HPLC); in the pull-down as a member of the synthetic library
As for B1, the Kd in test [1] came to 960 ± 30 µM.

B2: KETEEE-NH2 (peptide)
peptide: KETEEE-NH2
notes: as for B1
With B2, the Kd in test [1] came out at 950 ± 50 µM.

B3: KESEEE-NH2 (peptide)
peptide: KESEEE-NH2
notes: source: synthetic peptide (solid-phase synthesis, purified by HPLC)
As to B3, the Kd in test [2] was 450 ± 20 µM; in test [3], around 1000 µM; in test [1], 350 ± 20 µM; in test [4], 360 ± 230 µM; in test [5] it was 390 ± 210 µM.

B4: EESEEE-NH2 (peptide)
peptide: EESEEE-NH2
notes: as for B1
Consider B4, for which the Kd in test [1] is 1580 ± 60 µM.

B5: RRRDDDSDDD (peptide)
peptide: RRRDDDSDDD
notes: The supplier is named in the methods of the kinase assay; also called CK2 substrate peptide; source: bought: Biaffin GmbH & Co KG
For B5, the Kd in test [5] turned out to be 2100 ± 700 µM.
